Here are results for four molecules from patent publication US20210163582A1 (APRINOIA THERAPEUTICS, published 2021).

Experiment [1] concerns the target Tau in 6-month-old rTg4510 brain lysate (UniProt P10636-6 2-383, limits assumed). The experiment is described as follows: cell-based or functional assay.
In experiment [2] the target is T1, Tau species in AD (Alzheimer's disease) brain lysate (human, UniProt P10636-8 2-441, limits assumed).
T1 construct: Endogenous Tau of a tissue lysate, not a defined construct; also called AD Tau protein; AD brain homogenate
T1 sequence (P10636 other isoform, or with tags, fused parts or gaps limits assumed): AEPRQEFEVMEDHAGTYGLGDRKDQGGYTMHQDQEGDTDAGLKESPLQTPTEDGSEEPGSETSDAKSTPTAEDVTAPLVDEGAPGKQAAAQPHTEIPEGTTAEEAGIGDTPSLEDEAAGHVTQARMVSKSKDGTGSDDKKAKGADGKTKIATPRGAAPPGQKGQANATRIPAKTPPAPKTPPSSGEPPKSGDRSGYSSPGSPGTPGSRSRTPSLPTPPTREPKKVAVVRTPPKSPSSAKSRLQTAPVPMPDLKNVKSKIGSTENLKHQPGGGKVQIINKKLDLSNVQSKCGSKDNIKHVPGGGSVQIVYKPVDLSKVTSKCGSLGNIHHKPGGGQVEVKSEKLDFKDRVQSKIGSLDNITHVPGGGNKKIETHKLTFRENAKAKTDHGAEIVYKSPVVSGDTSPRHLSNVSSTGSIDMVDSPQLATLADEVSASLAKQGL
The experiment is described as follows: dot-blot on spotted AD total brain lysate, antibody in 2-fold dilutions from 6×10^-8 M. The procedure: To facilitate the therapeutic potentials of mAb005 and mAb037, humanization of mAb005 and mAb037 was performed by grafting the complementary determining regions (CDRs) of Variable Heavy chain (VH) and Variable Light chain (VL) into a human IgG4 S228P backbone (no Fab-arm exchange mutant, Silva et al., 2015 JBC). Four point-mutations were introduced in the nearby residues surrounding the CDRs to conserve the functionality of the resulting variants. Dot-blot analysis was performed to determine the EC₅₀ of each variant, compared with the original mouse/chimeric clones as well as to visualize the specificity to AD Tau protein compared with ND Tau protein. […] Dot-blot experiments were performed by spotting of ND and AD total brain lysates in triplicate, and antibody solutions were diluted serially by a dilution factor of 2 from a maximum concentration of 6×10⁻⁸ M. Summary graphs denote Mean±SD of 3 independent experiments for mAb005 and Mean±SD of triplicated wells.

Substitutions are numbered along the chain they refer to.

Chain of Tau in 6-month-old rTg4510 brain lysate (P10636 other isoform, or with tags, fused parts or gaps limits assumed): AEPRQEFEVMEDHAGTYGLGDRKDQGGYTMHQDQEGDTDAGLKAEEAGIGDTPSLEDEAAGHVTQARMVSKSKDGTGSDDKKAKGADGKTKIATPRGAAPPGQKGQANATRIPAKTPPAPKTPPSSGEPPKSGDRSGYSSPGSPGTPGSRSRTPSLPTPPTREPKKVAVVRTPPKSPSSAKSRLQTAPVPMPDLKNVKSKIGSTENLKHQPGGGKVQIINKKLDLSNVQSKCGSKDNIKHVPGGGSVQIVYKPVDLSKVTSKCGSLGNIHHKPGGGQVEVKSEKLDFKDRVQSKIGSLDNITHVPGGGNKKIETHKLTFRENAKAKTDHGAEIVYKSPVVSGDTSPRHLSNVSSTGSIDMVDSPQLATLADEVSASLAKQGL

B1: mAb037 (antibody, V domains shown)
VH: EVQLQQSGPELVKPGASVKIPCKASGYTFTDYNMDWVKQSHGKSLEWIGDINPNTGGTIYNQKFKGKATLTVDKSSSTAYMELRSLTSEDTAVYYCAGEGPYYYGTTHPFAYWGQGTLVTVSA
VL: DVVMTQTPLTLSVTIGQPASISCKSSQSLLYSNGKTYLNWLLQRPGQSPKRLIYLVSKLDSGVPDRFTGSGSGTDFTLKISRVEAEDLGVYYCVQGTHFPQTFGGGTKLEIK
notes: Mouse monoclonal from hybridoma; also called mouse mAb037; original mouse clone (of mAb037)
As for B1, the “EC50 of inhibition of Tau seeding (Tau spots per cell in Tau-LM reporter cells)” value in experiment [1] stood at 22.9 nM. A half-maximal effect in experiment [2] (EC50) was put at 0.54 nM.

B2: mAb005 (antibody, V domains shown)
VH: EVQLVESGGGLVKPGGSLKLSCAASGFTFSDYGMHWVRQAPEKGLEWVAYSNSDSTTIYYADTVKGRFTISRDNAKSTLFLQMTSLRSEDTAMYYCGRSYYSNYVDYWGQGTTLTVSS
VL: DIVMTQIPLSLPVSLGDQASISCRSSQSLVHSNGNTYLHWYLQKPGQSPKLLIYKVSNRFSGVPDRFSGSGSGTDFTLKISRVEAEDLGVYFCFQSTHVPPTFGGGTKLEIK
notes: Mouse monoclonal from hybridoma; also called mouse mAb005; original mouse clone (of mAb005)
For B2, in experiment [1], the “EC50 of inhibition of Tau seeding (Tau spots per cell in Tau-LM reporter cells)” value was 72.2 nM. The EC50 (as a rule, the concentration that produces a half-maximal response) in experiment [2] came to 0.4 nM.

B3: Humanized mAb005 (antibody, V domains shown)
VH: EVQLVESGGGLVQPGGSLRLSCAASGFTFSDYGMHWVRQAPGKGLEWVAYSNSDSTTIYYADTVKGRFTISRDNAKNSLYLQMNSLRAEDTAVYYCGRSYYSNYVDYWGQGTLVTVSS
VL: B2 VL with I2V, I7S, S14T, D17Q, Q18P, K44R, K50R, L88V, G105Q
notes: also called humanized variant of mAb005
In experiment [2], B3 came in with an EC50 of 0.43 nM.

B4: Humanized mAb037 (antibody, V domains shown)
VH: QVQLVQSGAEVKKPGASVKVSCKASGYTFTDYNMDWVRQAHGQGLEWIGDINPNTGGTIYNQKFKGRATLTVDTSISTAYMELSRLRSDDTAVYYCAGEGPYYYGTTHPFAYWGQGTLVTVSS
VL: DVVMTQSPLSLPVTLGQPASISCKSSQSLLYSNGKTYLNWLLQRPGQSPRRLIYLVSKLDSGVPDRFSGSGSGTDFTLKISRVEAEDVGVYYCVQGTHFPQTFGGGTKLEIK
notes: also called humanized variant of mAb037
Regarding B4, the midpoint of the response in experiment [2], the EC50, lay at 0.95 nM.
